Molecular target: GII.10 P domain (Vietnam026) (norovirus GII.10 (Vietnam026))
Assay: crystal structure

**Q.** With “GII.10 P domain (Vietnam026) (domain or fragment)” as the substance, how does the stoichiometry N read?
**A.** 2

Reference: PMC5667739
